Experimental data reported in patent publication US9067983B2, “Anti-inflammatory antibodies and uses therefor” (DecImmune Therapeutics, Inc., priority 2009, dated 2015).

Tests used:
[1] = molecular target: N2 peptide (N2 region of non-muscle myosin II heavy chain) (Mus musculus, UniProt Q61879); assay: binding of hybridoma antibodies to the N2 peptide in vitro
Protocol: (§1) A panel of mouse hybridomas were prepared to identify the N2 region of non-muscle myosin II heavy chain. Thus, mice were immunized with the N2 peptide (Ac-LMKNMDPLNDNV (SEQ ID NO: 33)) coupled to a carrier protein (KLH). This region (N2) is highly conserved and identical in mouse and man. […] 12A6 is a IgG2b isotype. Its VH most closely matches the germ line gene 3609.11.169 sequence paired with DH: DSP2/DFL16.1 and its light chain is a V kappa 8-27 with JK1. 21G6 is an IgG1 isotype with its VH matching J558.35; DH: DSP2.6/DSP2.4/DSP2.3 and JH: JH3. Its light chain is V kappa hf24 and JK4.

N2 self-peptide = assay: binding of anti-N2 antibody in vivo in heart after LAD occlusion and reperfusion (confocal microscopy); design: species or system mouse; conditions: B6 mice
Protocol: Specificity of the anti-N2 antibody. B6 mice were injected i.v. with fluorescently-labeled anti-N2 antibody (12A6) and anti-CD31 antibody prior to 60 min LAD occlusion and 30 min reperfusion. Following treatment, hearts were collected, fixed, and analyzed by confocal microscopy. The area at risk (left ventricle) was compared with the non-risk area (right ventricle). Quantification of the individual antibody staining as well as the merged images both in the area at risk and non-risk area is shown in FIG. 5.

B6 mice = assay: murine myocardial infarction model (1 h LAD occlusion, 24 h reperfusion); assay type: in vivo, mouse; conditions: pretreatment with 100 ugs of Fab'2 fragment (Fc removed)
Protocol: as §1
B6 mice were subjected to 1 h LAD occlusion followed by 24 h reperfusion. […] Following reperfusion, both serum troponin-I levels (A) and mouse IgM deposition (B) were analyzed and statistical significance for each was evaluated by Student's t test (FIG. 3).
[…] Serum troponin-I levels were measured after 24 h reperfusion.

B1: 21G6: murine anti-N2 IgG1 produced by hybridoma PTA-9393; VH SEQ ID NO: 14, VL SEQ ID NO: 20 (antibody, listed as Mus sp., V domains shown)
VH: QVQLQESGAELVKPGASVKLSCKASGYTFTSYYMYWVKQRPGQGLEWIGGINPSNGGTNFNEKFKSKATLTVDKSSSTAYMQLSSLTSEDSAVYYCTRWGYDREWFAYWGQGTLVTVSA
VL: DIVMTQAAPSVPVTPGESVSISCRSSKSLLHSNGNTYLYWFLQRPGQSPQVLIYRMSNLASGVPDRFSGSGSGTAFTLRISRVEAEDVGVYYCMQHLEYPFTFGSGTKLEIKR
- binding to the N2 peptide in vitro [1]: bind the N2 peptide
- binding to the N2 self-peptide in vivo (N2 self-peptide): bind the N2 peptide
- ischemia reperfusion injury (B6 mice): blocks ischemia reperfusion injury
